The record followed here is paper PMC7049685, “The C-terminal tail of the yeast mitochondrial transcription factor Mtf1 coordinates template strand alignment, DNA scrunching and timely transition into elongation” (Nucleic Acids Research, 2020).

Where two headings read alike, the source gives them in different places.

For data set [1], the target named is T1, Rpo41-Mtf1 (yeast mitochondrial RNA polymerase with initiation factor Mtf1) on promoter DNA (Saccharomyces cerevisiae, UniProt P13433).
T1 construct: assembled on 15S or 21S rRNA promoter DNA; with Mitochondrial transcription factor 1
T1 sequence (P13433 1-1351): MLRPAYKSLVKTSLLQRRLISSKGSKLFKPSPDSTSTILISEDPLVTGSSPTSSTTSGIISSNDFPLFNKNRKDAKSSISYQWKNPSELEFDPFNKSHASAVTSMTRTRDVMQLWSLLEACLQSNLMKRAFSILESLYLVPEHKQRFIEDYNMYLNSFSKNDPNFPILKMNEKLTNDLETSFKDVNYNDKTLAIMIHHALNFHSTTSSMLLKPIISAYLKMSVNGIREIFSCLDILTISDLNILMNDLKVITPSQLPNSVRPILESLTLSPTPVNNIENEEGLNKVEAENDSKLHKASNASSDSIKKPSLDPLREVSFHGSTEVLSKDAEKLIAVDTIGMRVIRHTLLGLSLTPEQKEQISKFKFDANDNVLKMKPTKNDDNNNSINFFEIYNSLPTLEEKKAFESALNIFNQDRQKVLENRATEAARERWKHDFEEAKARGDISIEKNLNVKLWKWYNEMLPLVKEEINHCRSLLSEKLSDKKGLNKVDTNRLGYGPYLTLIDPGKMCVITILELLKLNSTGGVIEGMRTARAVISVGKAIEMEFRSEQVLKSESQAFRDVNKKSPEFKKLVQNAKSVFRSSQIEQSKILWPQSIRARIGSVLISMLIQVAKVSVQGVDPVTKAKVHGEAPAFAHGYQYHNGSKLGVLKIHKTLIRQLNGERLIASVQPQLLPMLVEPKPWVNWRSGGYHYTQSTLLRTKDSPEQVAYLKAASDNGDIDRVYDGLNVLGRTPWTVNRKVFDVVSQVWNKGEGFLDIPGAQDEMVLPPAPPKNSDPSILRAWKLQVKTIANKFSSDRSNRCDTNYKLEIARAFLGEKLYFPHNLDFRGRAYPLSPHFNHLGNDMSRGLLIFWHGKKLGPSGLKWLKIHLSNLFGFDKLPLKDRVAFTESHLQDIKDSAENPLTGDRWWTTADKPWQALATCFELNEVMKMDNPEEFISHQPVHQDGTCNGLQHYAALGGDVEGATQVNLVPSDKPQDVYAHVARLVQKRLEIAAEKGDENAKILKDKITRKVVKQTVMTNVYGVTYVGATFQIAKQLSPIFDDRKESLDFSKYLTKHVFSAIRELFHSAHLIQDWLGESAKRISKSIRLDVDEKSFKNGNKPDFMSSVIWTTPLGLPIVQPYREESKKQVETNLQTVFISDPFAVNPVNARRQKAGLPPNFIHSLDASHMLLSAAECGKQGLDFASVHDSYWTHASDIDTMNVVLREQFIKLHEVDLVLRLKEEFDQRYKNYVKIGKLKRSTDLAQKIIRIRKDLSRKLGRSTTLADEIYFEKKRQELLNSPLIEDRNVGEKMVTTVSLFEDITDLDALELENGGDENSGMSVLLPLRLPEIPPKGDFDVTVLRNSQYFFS
T1 sequence (P14908 2-341 partner): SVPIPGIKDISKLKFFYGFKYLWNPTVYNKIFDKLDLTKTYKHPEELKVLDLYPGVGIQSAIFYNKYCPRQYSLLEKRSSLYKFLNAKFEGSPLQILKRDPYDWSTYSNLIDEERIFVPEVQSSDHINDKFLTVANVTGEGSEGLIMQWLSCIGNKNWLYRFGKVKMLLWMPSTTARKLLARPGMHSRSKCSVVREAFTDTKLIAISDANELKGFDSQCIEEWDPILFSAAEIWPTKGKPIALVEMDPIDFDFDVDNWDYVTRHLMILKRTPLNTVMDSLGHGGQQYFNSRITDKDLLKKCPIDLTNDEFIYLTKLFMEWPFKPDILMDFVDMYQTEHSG
As to the kind of experiment: radiometric gel assay of 2-mer RNA synthesis, Michaelis-Menten fit. It counts as biochemical. As to conditions: 21S rRNA AA promoter, [γ-32P]ATP, 1 μM Rpo41, 2 μM Mtf1-Δ20, 10 mM Mg acetate, pH 7.5, 25 °C.

The target in data set [2] is T1, Rpo41-Mtf1 (yeast mitochondrial RNA polymerase with initiation factor Mtf1) on promoter DNA. The data set is described as follows: 2-aminopurine fluorescence titration, hyperbolic fit. In kind it is binding. As to conditions: composite Kd of +1 and +2 initiating ATP; 15S rRNA AA promoter with 2AP at -1 (200 nM), 400 nM Rpo41 and Mtf1-Δ20, 10 mM Mg acetate, pH 7.5, 25 °C.

The target is the same in data set [3]. The data set is described as above. In kind it is binding.
For another data set, the target named is Rpo41;Mtf1-Δ16 (Saccharomyces cerevisiae;Saccharomyces …, UniProt P13433;P14908 28-1351;1-325, |). The data set is described as follows: fluorescence anisotropy; 10 mM Mg acetate; Kd in Figure S2C table not in the material; 50 mM Tris-acetate pH 7.5, 100 mM potassium glutamate, 10 mM magnesium acetate, 0.01% Tween-20, 25 °C; 5 nM TAMRA-DNA. As to conditions: protein: recombinant;recombinant; tags: ;; copies: 1;1; label: TAMRA at 5' end of template strand (strand 2); blunt. Background: Polarisation of emitted light reports the rotation of a fluorescent probe.
Rpo41;Mtf1-Δ16, sequence (P14908 1-325, stated change not applied, one chain of several): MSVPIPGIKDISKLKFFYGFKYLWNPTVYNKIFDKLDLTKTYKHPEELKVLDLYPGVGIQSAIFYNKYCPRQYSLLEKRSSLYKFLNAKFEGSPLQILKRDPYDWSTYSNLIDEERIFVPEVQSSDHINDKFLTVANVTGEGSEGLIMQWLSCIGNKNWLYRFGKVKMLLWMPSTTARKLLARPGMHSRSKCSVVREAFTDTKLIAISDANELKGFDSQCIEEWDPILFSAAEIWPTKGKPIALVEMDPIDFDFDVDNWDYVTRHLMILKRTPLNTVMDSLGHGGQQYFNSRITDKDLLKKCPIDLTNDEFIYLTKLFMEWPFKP

The next data set deals with Rpo41;Mtf1-Δ20 (Saccharomyces cerevisiae;Saccharomyces …, UniProt P13433;P14908 28-1351;1-321, |). The data set is described as follows: fluorescence anisotropy; 10 mM Mg acetate; 50 mM Tris-acetate pH 7.5, 100 mM potassium glutamate, 10 mM magnesium acetate, 0.01% Tween-20, 25 °C; 5 nM TAMRA-DNA. As to conditions: protein: recombinant;recombinant; tags: ;; copies: 1;1; label: TAMRA at 5' end of template strand (strand 2); blunt.
Rpo41;Mtf1-Δ20, sequence (P14908 1-321, stated change not applied, chain 2 of 2, one chain of several): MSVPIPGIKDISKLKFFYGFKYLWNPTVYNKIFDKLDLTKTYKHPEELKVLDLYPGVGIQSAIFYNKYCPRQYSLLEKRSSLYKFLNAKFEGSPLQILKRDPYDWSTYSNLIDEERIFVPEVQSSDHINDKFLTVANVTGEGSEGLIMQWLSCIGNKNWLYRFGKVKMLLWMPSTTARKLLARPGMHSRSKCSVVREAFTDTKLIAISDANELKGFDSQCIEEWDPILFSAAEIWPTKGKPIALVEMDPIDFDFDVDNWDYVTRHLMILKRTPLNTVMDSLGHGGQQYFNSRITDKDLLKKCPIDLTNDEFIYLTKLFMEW

Data set [4] addresses T2, Rpo41;Mtf1-WT (Saccharomyces cerevisiae;Saccharomyces …, UniProt P13433;P14908 28-1351;1-341, |). The description is as above. As to conditions: protein: recombinant;recombinant; tags: ;; copies: 1;1; label: TAMRA at 5' end of template strand (strand 2); blunt.
Data set [5] has as its target T2, Rpo41;Mtf1-WT. As to the kind of experiment: single-molecule FRET; no initiating nucleotides; EFRET 0.14 to 0.38; 50 mM Tris-acetate pH 7.5, 100 mM potassium glutamate, 10 mM magnesium acetate, 0.01% Tween-20, 25 °C; 5 nM TAMRA-DNA. As to conditions: protein: recombinant;recombinant; tags: ;; copies: 1;1; label: FRET donor and acceptor (Cy3, Cy5).
Substrate in data set [6]: Nc1ncnc2c1ncn2[C@@H]1O[C@H](COP(=O)(O)OP(=O)(O)OP(=O)(O)O)[C@@H](O)[C@H]1O
As to the kind of experiment: radiometric gel assay of 2-mer RNA synthesis, Michaelis-Menten fit. As to conditions: 21S rRNA AA promoter, [γ-32P]ATP, 1 μM Rpo41, 2 μM Mtf1, 10 mM Mg acetate, pH 7.5, 25 °C. In kind it is biochemical, Saccharomyces cerevisiae.

As usually defined, the Km is the substrate concentration at which the rate is half of its maximum. For orientation: Kd means the equilibrium constant for the complex coming apart. `Nc1ncnc2c1ncn2[C@@H]1O[C@H](COP(=O)(O)OP(=O)(O)OP(=O)(O)O)[C@@H](O)[C@H]1O` [ATP]: in data set [1], the Km worked out at 364 µM. For the same molecule, the Kd in data set [2] was determined as 500 µM; in data set [3], 65 µM.

B1: 15S rRNA AA promoter -12 to +8 (dsDNA)
DNA 1: TATTATATAAGTAATAAATA
DNA 2: TATTTATTACTTATATAATA
In the case of B1, in the data set with Rpo41;Mtf1-Δ16, the binding signal was approximately 7 fold weaker than Mtf1-WT. Besides, the dissociation constant Kd was 0.81 ± 0.1 nM with Rpo41;Mtf1-Δ20 and 0.12 ± 0.05 nM in the data set with Rpo41;Mtf1-WT [4].

B2: smFRET promoter DNA template (position 0) (dsDNA)
DNA 1: TGGCCACGGCAGCGAGGCTATTATATATATAAGTAGTAACAAGTAGAATA
DNA 2: TATTCTACTTGTTACTACTTATATATATAATAGCCTCGCTGCCGTGGCCA
As for B2, the binding result with Rpo41;Mtf1-WT [5] is reported as “binds”.

B3: Rpo41-Mtf1 (yeast mitochondrial RNA polymerase with initiation factor Mtf1) on promoter DNA (Saccharomyces cerevisiae S288C) (protein)
chain: T1 sequence (P13433 1-1351)
notes: assembled on 15S or 21S rRNA promoter DNA; with Mitochondrial transcription factor 1
As a reminder, the kcat is the number of substrate molecules converted per active site and unit of time at saturation. In the case of B3, in data set [6], the Km turned out to be 165 µM and the kcat is 0.4 s⁻¹.
